Data set [1] deals with HIV-1 CA A14C/E45C cross-linked tubular assemblies (HIV-1). Put plainly: co-sedimentation.
Data set [2] concerns the molecule itself. Briefly: SEC. (In general: Size exclusion chromatography separates by hydrodynamic size, large species first.)
Data set [3] deals with the molecule itself. Briefly: SEC. This is another data set of the same source.

B1: MxB-HA K663D (natural protein)
chain: MSKAHKPWPYRRRSQFSSRKYLKKEMNSFQQQPPPFGTVPPQMMFPPNWQGAEKDAAFLAKDFNFLTLNNQPPPGNRSQPRAMGPENNLYSQYEQKVRPCIDLIDSLRALGVEQDLALPAIAVIGDQSSGKSSVLEALSGVALPRGSGIVTRCPLVLKLKKQPCEAWAGRISYRNTELELQDPGQVEKEIHKAQNVMAGNGRGISHELISLEITSPEVPDLTIIDLPGITRVAVDNQPRDIGLQIKALIKKYIQRQQTINLVVVPCNVDIATTEALSMAHEVDPEGDRTIGILTKPDLMDRGTEKSVMNVVRNLTYPLKKGYMIVKCRGQQEITNRLSLAEATKKEITFFQTHPYFRVLLEEGSATVPRLAERLTTELIMHIQKSLPLLEGQIRESHQKATEELRRCGADIPSQEADKMFFLIEKIKMFNQDIEKLVEGEEVVRENETRLYNKIREDFKNWVGILATNTQKVKNIIHEEVEKYEKQYRGKELLGFVNYKTFEIIVHQYIQQLVEPALSMLQKAMEIIQQAFINVAKKHFGEFFNLNQTVQSTIEDIKVKHTAKAENMIQLQFRMEQMVFCQDQIYSVVLKKVREEIFNPLGTPSQNMKLNSHFPSNESSVSSFTEIGIHLNAYFLETSKRLANQIPFIIQYFMLRENGDSLQDAMMQILQEKNRYSWLLQEQSETATKRRILKERIYRLTQARHALCQFSSKEIH
On to B1, for which the binding specificity (percent of input co-pelleted, background corrected) in data set [1] worked out at 27%.

B2: MxB-HA Y651D (natural protein)
chain: MSKAHKPWPYRRRSQFSSRKYLKKEMNSFQQQPPPFGTVPPQMMFPPNWQGAEKDAAFLAKDFNFLTLNNQPPPGNRSQPRAMGPENNLYSQYEQKVRPCIDLIDSLRALGVEQDLALPAIAVIGDQSSGKSSVLEALSGVALPRGSGIVTRCPLVLKLKKQPCEAWAGRISYRNTELELQDPGQVEKEIHKAQNVMAGNGRGISHELISLEITSPEVPDLTIIDLPGITRVAVDNQPRDIGLQIKALIKKYIQRQQTINLVVVPCNVDIATTEALSMAHEVDPEGDRTIGILTKPDLMDRGTEKSVMNVVRNLTYPLKKGYMIVKCRGQQEITNRLSLAEATKKEITFFQTHPYFRVLLEEGSATVPRLAERLTTELIMHIQKSLPLLEGQIRESHQKATEELRRCGADIPSQEADKMFFLIEKIKMFNQDIEKLVEGEEVVRENETRLYNKIREDFKNWVGILATNTQKVKNIIHEEVEKYEKQYRGKELLGFVNYKTFEIIVHQYIQQLVEPALSMLQKAMEIIQQAFINVAKKHFGEFFNLNQTVQSTIEDIKVKHTAKAENMIQLQFRMEQMVFCQDQIYSVVLKKVREEIFNPLGTPSQNMKLNSHFPSNESSVSSFTEIGIHLNAYFLETSKRLANQIPFIIQDFMLRENGDSLQKAMMQILQEKNRYSWLLQEQSETATKRRILKERIYRLTQARHALCQFSSKEIH
With B2, the binding specificity (percent of input co-pelleted, background corrected) in data set [1] is less than 0.1%.

B3: MxB-HA M666D (natural protein)
chain: MSKAHKPWPYRRRSQFSSRKYLKKEMNSFQQQPPPFGTVPPQMMFPPNWQGAEKDAAFLAKDFNFLTLNNQPPPGNRSQPRAMGPENNLYSQYEQKVRPCIDLIDSLRALGVEQDLALPAIAVIGDQSSGKSSVLEALSGVALPRGSGIVTRCPLVLKLKKQPCEAWAGRISYRNTELELQDPGQVEKEIHKAQNVMAGNGRGISHELISLEITSPEVPDLTIIDLPGITRVAVDNQPRDIGLQIKALIKKYIQRQQTINLVVVPCNVDIATTEALSMAHEVDPEGDRTIGILTKPDLMDRGTEKSVMNVVRNLTYPLKKGYMIVKCRGQQEITNRLSLAEATKKEITFFQTHPYFRVLLEEGSATVPRLAERLTTELIMHIQKSLPLLEGQIRESHQKATEELRRCGADIPSQEADKMFFLIEKIKMFNQDIEKLVEGEEVVRENETRLYNKIREDFKNWVGILATNTQKVKNIIHEEVEKYEKQYRGKELLGFVNYKTFEIIVHQYIQQLVEPALSMLQKAMEIIQQAFINVAKKHFGEFFNLNQTVQSTIEDIKVKHTAKAENMIQLQFRMEQMVFCQDQIYSVVLKKVREEIFNPLGTPSQNMKLNSHFPSNESSVSSFTEIGIHLNAYFLETSKRLANQIPFIIQYFMLRENGDSLQKAMDQILQEKNRYSWLLQEQSETATKRRILKERIYRLTQARHALCQFSSKEIH
Molecule B3 displayed a binding specificity (percent of input co-pelleted, background corrected) in data set [1] of 26%.

B4: MBP-MxB_(1-715 IKM/DDD) (natural protein, UniProt P20592 1-715, looked up)
chain: MSKAHKPWPYRRRSQFSSRKYLKKEMNSFQQQPPPFGTVPPQMMFPPNWQGAEKDAAFLAKDFNFLTLNNQPPPGNRSQPRAMGPENNLYSQYEQKVRPCIDLIDSLRALGVEQDLALPAIAVIGDQSSGKSSVLEALSGVALPRGSGIVTRCPLVLKLKKQPCEAWAGRISYRNTELELQDPGQVEKEIHKAQNVMAGNGRGISHELISLEITSPEVPDLTIIDLPGITRVAVDNQPRDIGLQIKALIKKYIQRQQTINLVVVPCNVDIATTEALSMAHEVDPEGDRTIGILTKPDLMDRGTEKSVMNVVRNLTYPLKKGYMIVKCRGQQEITNRLSLAEATKKEITFFQTHPYFRVLLEEGSATVPRLAERLTTELIMHIQKSLPLLEGQIRESHQKATEELRRCGADIPSQEADKMFFLDEKIKMFNQDIEKLVEGEEVVRENETRLYNKIREDFKNWVGILATNTQKVKNIIHEEVEKYEKQYRGKELLGFVNYKTFEIIVHQYIQQLVEPALSMLQKAMEIIQQAFINVAKKHFGEFFNLNQTVQSTIEDIKVKHTAKAENMIQLQFRMEQMVFCQDQIYSVVLKKVREEIFNPLGTPSQNMKLNSHFPSNESSVSSFTEIGIHLNAYFLETSKRLANQIPFIIQYFMLRENGDSLQDAMDQILQEKNRYSWLLQEQSETATKRRILKERIYRLTQARHALCQFSSKEIH
In general, stoichiometry N refers to a count of units in the complex or per binding partner. Consider B4, for which the “stoichiometry N” value in the data set “SEC [2]” came out at 2.

B5: MxB-HA E681A (natural protein)
chain: MSKAHKPWPYRRRSQFSSRKYLKKEMNSFQQQPPPFGTVPPQMMFPPNWQGAEKDAAFLAKDFNFLTLNNQPPPGNRSQPRAMGPENNLYSQYEQKVRPCIDLIDSLRALGVEQDLALPAIAVIGDQSSGKSSVLEALSGVALPRGSGIVTRCPLVLKLKKQPCEAWAGRISYRNTELELQDPGQVEKEIHKAQNVMAGNGRGISHELISLEITSPEVPDLTIIDLPGITRVAVDNQPRDIGLQIKALIKKYIQRQQTINLVVVPCNVDIATTEALSMAHEVDPEGDRTIGILTKPDLMDRGTEKSVMNVVRNLTYPLKKGYMIVKCRGQQEITNRLSLAEATKKEITFFQTHPYFRVLLEEGSATVPRLAERLTTELIMHIQKSLPLLEGQIRESHQKATEELRRCGADIPSQEADKMFFLIEKIKMFNQDIEKLVEGEEVVRENETRLYNKIREDFKNWVGILATNTQKVKNIIHEEVEKYEKQYRGKELLGFVNYKTFEIIVHQYIQQLVEPALSMLQKAMEIIQQAFINVAKKHFGEFFNLNQTVQSTIEDIKVKHTAKAENMIQLQFRMEQMVFCQDQIYSVVLKKVREEIFNPLGTPSQNMKLNSHFPSNESSVSSFTEIGIHLNAYFLETSKRLANQIPFIIQYFMLRENGDSLQKAMMQILQEKNRYSWLLQAQSETATKRRILKERIYRLTQARHALCQFSSKEIH
In turn, B5 gave a binding specificity (percent of input co-pelleted, background corrected) in data set [1] of 9.8%.

B6: MBP-MxB_(1-715 IK/DD) (natural protein, UniProt P20592 1-715, looked up)
chain: MSKAHKPWPYRRRSQFSSRKYLKKEMNSFQQQPPPFGTVPPQMMFPPNWQGAEKDAAFLAKDFNFLTLNNQPPPGNRSQPRAMGPENNLYSQYEQKVRPCIDLIDSLRALGVEQDLALPAIAVIGDQSSGKSSVLEALSGVALPRGSGIVTRCPLVLKLKKQPCEAWAGRISYRNTELELQDPGQVEKEIHKAQNVMAGNGRGISHELISLEITSPEVPDLTIIDLPGITRVAVDNQPRDIGLQIKALIKKYIQRQQTINLVVVPCNVDIATTEALSMAHEVDPEGDRTIGILTKPDLMDRGTEKSVMNVVRNLTYPLKKGYMIVKCRGQQEITNRLSLAEATKKEITFFQTHPYFRVLLEEGSATVPRLAERLTTELIMHIQKSLPLLEGQIRESHQKATEELRRCGADIPSQEADKMFFLDEKIKMFNQDIEKLVEGEEVVRENETRLYNKIREDFKNWVGILATNTQKVKNIIHEEVEKYEKQYRGKELLGFVNYKTFEIIVHQYIQQLVEPALSMLQKAMEIIQQAFINVAKKHFGEFFNLNQTVQSTIEDIKVKHTAKAENMIQLQFRMEQMVFCQDQIYSVVLKKVREEIFNPLGTPSQNMKLNSHFPSNESSVSSFTEIGIHLNAYFLETSKRLANQIPFIIQYFMLRENGDSLQDAMMQILQEKNRYSWLLQEQSETATKRRILKERIYRLTQARHALCQFSSKEIH
For the molecule B6, the “stoichiometry N” value in “SEC [2]” came out at 2. The same molecule returned a binding specificity (percent of input co-pelleted, background corrected) in data set [1] of 40%.

B7: MxB_(84YRGK) (6xHis-MxB residues 84-715 with YRGK487-490AAAA) (domain or fragment)
chain: GPENNLYSQYEQKVRPCIDLIDSLRALGVEQDLALPAIAVIGDQSSGKSSVLEALSGVALPRGSGIVTRCPLVLKLKKQPCEAWAGRISYRNTELELQDPGQVEKEIHKAQNVMAGNGRGISHELISLEITSPEVPDLTIIDLPGITRVAVDNQPRDIGLQIKALIKKYIQRQQTINLVVVPCNVDIATTEALSMAHEVDPEGDRTIGILTKPDLMDRGTEKSVMNVVRNLTYPLKKGYMIVKCRGQQEITNRLSLAEATKKEITFFQTHPYFRVLLEEGSATVPRLAERLTTELIMHIQKSLPLLEGQIRESHQKATEELRRCGADIPSQEADKMFFLIEKIKMFNQDIEKLVEGEEVVRENETRLYNKIREDFKNWVGILATNTQKVKNIIHEEVEKYEKQAAAAELLGFVNYKTFEIIVHQYIQQLVEPALSMLQKAMEIIQQAFINVAKKHFGEFFNLNQTVQSTIEDIKVKHTAKAENMIQLQFRMEQMVFCQDQIYSVVLKKVREEIFNPLGTPSQNMKLNSHFPSNESSVSSFTEIGIHLNAYFLETSKRLANQIPFIIQYFMLRENGDSLQKAMMQILQEKNRYSWLLQEQSETATKRRILKERIYRLTQARHALCQFSSKEIH
Consider B7, for which the percent co-sedimented with CA in data set [1] came to 9%.

B8: MxB_(84YRGK/M574D) (domain or fragment, UniProt P20592 84-715, looked up)
chain: GPENNLYSQYEQKVRPCIDLIDSLRALGVEQDLALPAIAVIGDQSSGKSSVLEALSGVALPRGSGIVTRCPLVLKLKKQPCEAWAGRISYRNTELELQDPGQVEKEIHKAQNVMAGNGRGISHELISLEITSPEVPDLTIIDLPGITRVAVDNQPRDIGLQIKALIKKYIQRQQTINLVVVPCNVDIATTEALSMAHEVDPEGDRTIGILTKPDLMDRGTEKSVMNVVRNLTYPLKKGYMIVKCRGQQEITNRLSLAEATKKEITFFQTHPYFRVLLEEGSATVPRLAERLTTELIMHIQKSLPLLEGQIRESHQKATEELRRCGADIPSQEADKMFFLIEKIKMFNQDIEKLVEGEEVVRENETRLYNKIREDFKNWVGILATNTQKVKNIIHEEVEKYEKQAAAAELLGFVNYKTFEIIVHQYIQQLVEPALSMLQKAMEIIQQAFINVAKKHFGEFFNLNQTVQSTIEDIKVKHTAKAENMIQLQFRDEQMVFCQDQIYSVVLKKVREEIFNPLGTPSQNMKLNSHFPSNESSVSSFTEIGIHLNAYFLETSKRLANQIPFIIQYFMLRENGDSLQKAMMQILQEKNRYSWLLQEQSETATKRRILKERIYRLTQARHALCQFSSKEIH
Turning to B8, in the data set “SEC [3]”, the binding result is listed as “binds”.
